In US11278600B2, “Human alpha-galactosidase variants” (Codexis, Inc., priority 2014, dated 2022):

What was measured:
Format in all cases: biochemical
[1] = HTP-analysis of supernatants pretreated with base (MUGal hydrolysis); conditions: activity of the variant/activity of Rd4BB (SEQ ID NO: 15); challenge at pH 9.65
How it was run: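 GLA variants were secreted by transformed INVSc1 yeast grown 66-84 h at 30° C. Supernatants were exposed to neutral-to-basic buffers (pH 7.0-9.7) at 37° C for 1-18 h, then assayed with MUGal in acidic citrate/McIlvaine buffer, with fluorescence read after quenching.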

[2] = HTP-analysis of supernatants pretreated with acid (MUGal hydrolysis); conditions: activity of the variant/activity of Rd4BB (SEQ ID NO: 15); challenge at pH 3.7
How it was run: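 MUGal hydrolysis was tracked by fluorescence (Ex 355 nm, Em 448 nm) after a 30-180 min reaction at 37° C. in pH 4.8 McIlvaine/citrate buffer, stopped with 1 M sodium carbonate. Beforehand, yeast (INVSc1) culture supernatants carrying GLA variants were held 1-3 h at 37° C. in acidic McIlvaine buffer, pH 3.3-4.3.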

[3] = HTP-analysis of yeast culture supernatants, no challenge (MUGal hydrolysis); conditions: activity of the variant/activity of Rd4BB (SEQ ID NO: 15)
How it was run: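 Activity read as 4-methylumbelliferyl α-D-galactopyranoside hydrolysis: fluorescence (355/448 nm) after sodium carbonate stop, following 30-180 min at 37° C with 2 mM MUGal stock at pH 4.6–4.8. Enzyme source is unchallenged culture supernatant of INVSc1 yeast expressing GLA variants, grown 66-84 h at 30° C.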

Molecule | Relative Activity of GLA Variants After Challenge at pH 9.65 [1] | Relative Activity of GLA Variants After Challenge at pH 3.7 [2] | Relative Activity of GLA Variants After No Challenge (NC) [3]
379 (protein, Synthetic Polypeptide sequence of Variant No. 379 of mature Human GLA) LDNGLARTPTMGWLHWERFMCNLDCQEEPDSCISEKLFMEMAERMVTEGWKDAGYEYLCIDDCWMAPQRDSEGRLQADPQRFPHGIRQLANYVHSKGLKLGIYADVGNKTCAGFPGSFGYYDIDAQTFADWGVDLLKFDGCYCDSLENLADGYKHMSLALNRTGRSIVYSCEWPLYMWPFQKPNYTEIRQYCNHWRNFADIDDSWKSIKSILDWTSRNQERIVDVAGPGGWNDPDMLVIGNFGLSWDQQVTQMALWAIMAAPLFMSNDLRHISPQAKALLQDKDVIAINQDPLGKQGYQLRKGDNFEVWERPLSGDAWAVAIINRQEIGGPRSYTIPVASLGKGVACNPACFITQLLPVKRQLGFYNWTSRLKSHINPTGTVLLQLENTMQMSLKDLL | + (0.5 to 1.5 relative activity over Rd4BB (SEQ ID NO: 15)) | ++ (>1.5 to 2.5 relative activity over Rd4BB (SEQ ID NO: 15)) | + (0.5 to 1.5 relative activity over Rd4BB (SEQ ID NO: 15))
386 (protein, Synthetic Polypeptide sequence of Variant No. 386 of mature Human GLA) LDNGLARTPTMGWLHWERFMCNLDCQEEPDSCISEKLFMEMAERMVSEGWKDAGYEYLCIDDCWMAPQRDSEGRLQADPQRFPHGIRQLANYVRSKGLKLGIYADVGNKTCAGFPGSFGYYDIDAQTFADWGVDLLKFDGCYCDSLENLADGYKHMSLALNRTGRSIVYSCEWPLYMWPFQKPNYTEIRQYCNHWRNFADIDDSWKSIKSILDWTSRNQERIVDVAGPGGWNDPDMLVIGNFGLSWDQQVTQMALWAIMAAPLFMSNDLRHISPQAKALLQDKDVIAINQDPLGKQGYQLRKGDNFEVWERPLSGDAWAVAIINRQEIGGPRSYTIPVASLGKGVACNPACFITQLLPVKRQLGFYNWTSRLKSHINPTGTVLLQLENTMQMSLKDLL | − (<0.5 relative activity over Rd4BB (SEQ ID NO: 15)) | + (0.5 to 1.5 relative activity over Rd4BB (SEQ ID NO: 15)) | − (<0.5 relative activity over Rd4BB (SEQ ID NO: 15))
383 (protein, Synthetic Polypeptide sequence of Variant No. 383 of mature Human GLA) LDNGLARTPTMGWLHWERFMCNLDCQEEPDSCISEKLFMEMAERMVSEGWKDAGYEYLCIDDCWMAPQRDSEGRLQADPQRFPHGIRQLANCVHSKGLKLGIYADVGNKTCAGFPGSFGYYDIDAQTFADWGVDLLKFDGCYCDSLENLADGYKHMSLALNRTGRSIVYSCEWPLYMWPFQKPNYTEIRQYCNHWRNFADIDDSWKSIKSILDWTSRNQERIVDVAGPGGWNDPDMLVIGNFGLSWDQQVTQMALWAIMAAPLFMSNDLRHISPQAKALLQDKDVIAINQDPLGKQGYQLRKGDNFEVWERPLSGDAWAVAIINRQEIGGPRSYTIPVASLGKGVACNPACFITQLLPVKRQLGFYNWTSRLKSHINPTGTVLLQLENTMQMSLKDLL | − (<0.5 relative activity over Rd4BB (SEQ ID NO: 15)) | − (<0.5 relative activity over Rd4BB (SEQ ID NO: 15)) | + (0.5 to 1.5 relative activity over Rd4BB (SEQ ID NO: 15))
385 (protein, Synthetic Polypeptide sequence of Variant No. 385 of mature Human GLA) LDNGLARTPTMGWLHWERFMCNLDCQEEPDSCISEKLFMEMAERMVSEGWKDAGYEYLCIDDCWMAPQRDSEGRLQADPQRFPHGIRQLANAVHSKGLKLGIYADVGNKTCAGFPGSFGYYDIDAQTFADWGVDLLKFDGCYCDSLENLADGYKHMSLALNRTGRSIVYSCEWPLYMWPFQKPNYTEIRQYCNHWRNFADIDDSWKSIKSILDWTSRNQERIVDVAGPGGWNDPDMLVIGNFGLSWDQQVTQMALWAIMAAPLFMSNDLRHISPQAKALLQDKDVIAINQDPLGKQGYQLRKGDNFEVWERPLSGDAWAVAIINRQEIGGPRSYTIPVASLGKGVACNPACFITQLLPVKRQLGFYNWTSRLKSHINPTGTVLLQLENTMQMSLKDLL | − (<0.5 relative activity over Rd4BB (SEQ ID NO: 15)) | + (0.5 to 1.5 relative activity over Rd4BB (SEQ ID NO: 15)) | + (0.5 to 1.5 relative activity over Rd4BB (SEQ ID NO: 15))
380 (protein, Synthetic Polypeptide sequence of Variant No. 380 of mature Human GLA) LDNGLARTPTMGWLHWERFMCNLDCQEEPDSCISEKLFMEMAERMVSEGWKDAGYEYLCIDDCWMAPQRDSEGRLQADPQRFPHGIRQLANKVHSKGLKLGIYADVGNKTCAGFPGSFGYYDIDAQTFADWGVDLLKFDGCYCDSLENLADGYKHMSLALNRTGRSIVYSCEWPLYMWPFQKPNYTEIRQYCNHWRNFADIDDSWKSIKSILDWTSRNQERIVDVAGPGGWNDPDMLVIGNFGLSWDQQVTQMALWAIMAAPLFMSNDLRHISPQAKALLQDKDVIAINQDPLGKQGYQLRKGDNFEVWERPLSGDAWAVAIINRQEIGGPRSYTIPVASLGKGVACNPACFITQLLPVKRQLGFYNWTSRLKSHINPTGTVLLQLENTMQMSLKDLL | − (<0.5 relative activity over Rd4BB (SEQ ID NO: 15)) | + (0.5 to 1.5 relative activity over Rd4BB (SEQ ID NO: 15)) | + (0.5 to 1.5 relative activity over Rd4BB (SEQ ID NO: 15))
381 (protein, Synthetic Polypeptide sequence of Variant No. 381 of mature Human GLA) LDNGLARTPTMGWLHWERFMCNLDCQEEPDSCISEKLFMEMAERMVSEGWKDAGYEYLCIDDCWMAPQRDSEGRLQADPQRFPHGIRQLANSVHSKGLKLGIYADVGNKTCAGFPGSFGYYDIDAQTFADWGVDLLKFDGCYCDSLENLADGYKHMSLALNRTGRSIVYSCEWPLYMWPFQKPNYTEIRQYCNHWRNFADIDDSWKSIKSILDWTSRNQERIVDVAGPGGWNDPDMLVIGNFGLSWDQQVTQMALWAIMAAPLFMSNDLRHISPQAKALLQDKDVIAINQDPLGKQGYQLRKGDNFEVWERPLSGDAWAVAIINRQEIGGPRSYTIPVASLGKGVACNPACFITQLLPVKRQLGFYNWTSRLKSHINPTGTVLLQLENTMQMSLKDLL | − (<0.5 relative activity over Rd4BB (SEQ ID NO: 15)) | + (0.5 to 1.5 relative activity over Rd4BB (SEQ ID NO: 15)) | + (0.5 to 1.5 relative activity over Rd4BB (SEQ ID NO: 15))
382 (protein, Synthetic Polypeptide sequence of Variant No. 382 of mature Human GLA) LDNGLARTPTMGWLHWERFMCNLDCQEEPDSCISEKLFMEMAERMVSEGWKDAGYEYLCIDDCWMAPQRDSEGRLQADPQRFPHGIRQLANYVNSKGLKLGIYADVGNKTCAGFPGSFGYYDIDAQTFADWGVDLLKFDGCYCDSLENLADGYKHMSLALNRTGRSIVYSCEWPLYMWPFQKPNYTEIRQYCNHWRNFADIDDSWKSIKSILDWTSRNQERIVDVAGPGGWNDPDMLVIGNFGLSWDQQVTQMALWAIMAAPLFMSNDLRHISPQAKALLQDKDVIAINQDPLGKQGYQLRKGDNFEVWERPLSGDAWAVAIINRQEIGGPRSYTIPVASLGKGVACNPACFITQLLPVKRQLGFYNWTSRLKSHINPTGTVLLQLENTMQMSLKDLL | − (<0.5 relative activity over Rd4BB (SEQ ID NO: 15)) | − (<0.5 relative activity over Rd4BB (SEQ ID NO: 15)) | − (<0.5 relative activity over Rd4BB (SEQ ID NO: 15))
384 (protein, Synthetic Polypeptide sequence of Variant No. 384 of mature Human GLA) LDNGLARTPTMGWLHWERFMCNLDCQEEPDSCISEKLFMEMAERMVSEGWKDAGYEYLCIDDCWMAPQRDSEGRLQADPQRFPHGIRQLANVVHSKGLKLGIYADVGNKTCAGFPGSFGYYDIDAQTFADWGVDLLKFDGCYCDSLENLADGYKHMSLALNRTGRSIVYSCEWPLYMWPFQKPNYTEIRQYCNHWRNFADIDDSWKSIKSILDWTSRNQERIVDVAGPGGWNDPDMLVIGNFGLSWDQQVTQMALWAIMAAPLFMSNDLRHISPQAKALLQDKDVIAINQDPLGKQGYQLRKGDNFEVWERPLSGDAWAVAIINRQEIGGPRSYTIPVASLGKGVACNPACFITQLLPVKRQLGFYNWTSRLKSHINPTGTVLLQLENTMQMSLKDLL | − (<0.5 relative activity over Rd4BB (SEQ ID NO: 15)) | + (0.5 to 1.5 relative activity over Rd4BB (SEQ ID NO: 15)) | + (0.5 to 1.5 relative activity over Rd4BB (SEQ ID NO: 15))
